US20110165063A1 (published 2011)
Substitutions are numbered along the chain they refer to.

Tests used:
[1] = biological target: T1, cynomolgus IL-1α (cynomolgus, UniProt P79340 113-271, limits assumed); test: cell-based or functional assay
T1 sequence (looked up): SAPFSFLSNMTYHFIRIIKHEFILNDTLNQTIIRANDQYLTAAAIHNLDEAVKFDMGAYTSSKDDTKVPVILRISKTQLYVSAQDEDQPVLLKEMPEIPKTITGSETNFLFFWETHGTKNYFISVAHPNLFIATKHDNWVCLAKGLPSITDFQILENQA

[2] = biological target: T2, recombinant human IL-1α (human, UniProt P01583 113-271); test: cell-based or functional assay
T2 sequence: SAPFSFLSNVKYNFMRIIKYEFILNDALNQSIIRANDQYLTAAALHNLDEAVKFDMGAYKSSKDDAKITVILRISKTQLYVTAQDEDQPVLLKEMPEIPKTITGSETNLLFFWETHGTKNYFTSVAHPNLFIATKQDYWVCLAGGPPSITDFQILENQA

[3] = biological target: T2, recombinant human IL-1α; test: ELISA, antibody captured by anti-human Fc, biotinylated human IL-1α titrated
Protocol: To determine if anti-IL-1α antibodies bind to human IL-1α, ELISA plates (Nunc, MaxiSorp, Rochester, N.Y.) were incubated overnight at 4° C. with anti-human Fc antibody diluted in Pierce Coat buffer at 2 μg/ml (Jackson Immunoresearch, West Grove, Pa.). Plates were washed five times in washing buffer (PBS containing 0.05% Tween 20), and blocked for 1 hour at 25° C. with 200 μl per well superblock blocking buffer (Thermo scientific, #37515). Blocking buffer was removed by tapping plates, and […] of each antibody in PBS containing 10% superblock and 0.5% Tween-20 was added to the wells at 100 μl per well and incubated at 25° C. for 1 hour. The wells were washed five times in 1× PBST, and 1 mg/ml biotinylated antigen was titrated at 1:6 serial dilutions (for a range of mg to pg in PBS containing 10% superblock, 0.05% Tween 20). Each dilution of antigen was then added to the plates and incubated for 1 hour at 25° C. The wells were washed five times in 1× PBST and incubated for 1 hour at 25° C. with polyHRP streptavidin (KPL #474-3000, Gaithersburg, Md.). The wells were washed five times in 1× PBST, and 100 μl of ULTRA-TMB ELISA (Pierce, Rockford, Ill.) were added per well. Following color development, the reaction was stopped with 1N HCL and absorbance at 450 nm was measured. The half-maximal effective concentration (EC₅₀) values are shown in Table 9, and the numerical value indicates binding of anti-IL-1α antibodies to human IL-1α.

[4] = biological target: T1, cynomolgus IL-1α; test: SPR (BIACORE), antibody captured, IL-1α in solution
[5] = biological target: T2, recombinant human IL-1α; test: as above

B1: murine anti-human IL-1α monoclonal antibody 3D12 (antibody, V domains shown)
VH: QIQLVQSGPELKKPGETVKISCKASGYTFRNYGMNWVKQAPGKDLKRMAWINTYTGESTYADDFKGRFAFSLETSASTAYLQINNLKNEDTATYFCARGIYYYGSSYAMDYWGQGTSVTVSS
VL: IQMTQTTSSLSASLGDRVTISCRASQDISNCLNWYQQKPDGTVKLLIYYTSRLHSGVPSRFSGSGSGTDYSLTISNLEQEDIATYFCQQGKTLPYAFGGGTKLEINR
With B1 the “IC50 for Antibody (PM), MRC-5 bioassay (IL-1α-stimulated production of IL-8)” value (shortened to “IC50 for Antibody (PM), MRC-5 bioassay”) [1] was 0.0723 nM and the “IC50 for Antibody (PM), MRC-5 bioassay” value [2] was 1.88 nM.

B2: h3D12.r16 (antibody, V domains shown)
VH: EVQLVQSGAEVKKPGASVKVSCKASGYTFKYYGMNWVRQAPGQGLERMGWINTYTGQSTYADDFKGRVTFTLDTSTSTAYMELSSLRSEDTAVYYCARDIYYYGSDFAMDYWGQGTTVTVSS
VL: DIQMTQSPSSLSASVGDRVTITCRASQDISNMLNWYQQKPGKAPKLLIYYTSRLKPGVPSRFSGSGSGTDYTFTISSLQPEDIATYFCQQGKTAPYTFGQGTKLEIK
With B2 the EC50 [3] was 0.072 nM, the “IC50 for Antibody (PM), MRC-5 bioassay” value [1] was 0.0008 nM and the “IC50 for Antibody (PM), MRC-5 bioassay” value [2] was 0.0006 nM. For the same binder, the Kd [4] was 0.0149 nM, the koff [4] was 1.33e-05 s⁻¹ and the kon [4] was 901000 M⁻¹ s⁻¹. For the same binder, the Kd [5] was 0.0308 nM, the koff [5] was 2.77e-05 s⁻¹ and the kon [5] was 900000 M⁻¹ s⁻¹.

B3: h3D12.8 (antibody, V domains shown)
VH: EIQLVQSGSELKKPGASVKVSCKASGYTFTNYGMNWVRQAPGQDLERMAWINTYTGESTYADDFKGRFVFSLDTSVSTAYLQISSLKAEDTAVYFCARGIYYYGSSYAMDYWGQGTTVTVSS
VL: B2 VL with M32C, A43T, K55H, P56S, A94L, T97A
notes: also called humanized 3D12 antibody h3D12.8; VH H3D12VH.1A / VL H3D12VK.1C
With B3 the EC50 [3] was 0.028 nM, the “IC50 for Antibody (PM), MRC-5 bioassay” value [2] was 1.95 nM and the Kd [5] was 1.35 nM. For the same binder, the koff [5] was 0.00274 s⁻¹ and the kon [5] was 2.04e+06 M⁻¹ s⁻¹.

B4: h3D12.r10 (antibody, V domains shown)
VH: B2 VH with V2I, K30A, Y31H, R47W, V68F, D99G, Y103F, D106N, F107Y
VL: B2 VL with A43T, K55R, P56S, T93K, A94P
With B4 the EC50 [3] was 0.0692 nM, the “IC50 for Antibody (PM), MRC-5 bioassay” value [1] was 0.00098 nM and the “IC50 for Antibody (PM), MRC-5 bioassay” value [2] was 0.0006 nM. It also gave a Kd [4] of 0.00894 nM, a koff [4] of 1.2e-05 s⁻¹ and a kon [4] of 1.37e+06 M⁻¹ s⁻¹. The Kd [5] was 0.0324 nM, the koff [5] was 3.75e-05 s⁻¹ and the kon [5] was 1.16e+06 M⁻¹ s⁻¹.

B5: h3D12-362-10/372-15 (antibody, V domains shown)
VH: EVQLVQSGAEVKKPGVSVKVSCKASGYTFTTYGMHWVRQAPGQGLEWMGWINTYTGESTYADDFQGRVTFTLDTSTSTAYMELSSLRSEDTAVYFCARGIYYYGSSYAMNYWGQGTTVTVSS
VL: B2 VL with A43T, K55Y, A94L, T97A
In the case of B5, the EC50 [3] is reported as 0.007 nM, the “IC50 for Antibody (PM), MRC-5 bioassay” value [1] is reported as 0.0126 nM and the “IC50 for Antibody (PM), MRC-5 bioassay” value [2] is reported as 0.006 nM. For the same binder, the Kd [4] was 0.0578 nM, the koff [4] was 2.25e-05 s⁻¹ and the kon [4] was 389000 M⁻¹ s⁻¹. For the same binder, the Kd [5] was 0.115 nM, the koff [5] was 4.1e-05 s⁻¹ and the kon [5] was 355000 M⁻¹ s⁻¹.

B6: h3D12.16 (antibody, V domains shown)
VH: B3 VH with S9A, L11V, V69T, S71T, V76T, L81M, Q82E, I83L, K87R, A88S
VL: B2 VL with M32C, A43T, K55H, P56S, A94L, T97A
notes: also called humanized 3D12 antibody h3D12.16; VH H3D12VH.2A / VL H3D12VK.1C
In the case of B6, the EC50 [3] is reported as 0.01 nM, the “IC50 for Antibody (PM), MRC-5 bioassay” value [2] is reported as 1.36 nM and the Kd [5] is reported as 2.09 nM. It also gave a koff [5] of 0.00253 s⁻¹ and a kon [5] of 1.21e+06 M⁻¹ s⁻¹.

B7: h3D12.r37 (antibody, V domains shown)
VH: B2 VH with V2I, Q57E, T59R, Y103F, F107Y
VL: B2 VL with M32R, T51A, K92N, A94P
For B7, the EC50 [3] was 0.114 nM, the “IC50 for Antibody (PM), MRC-5 bioassay” value [1] was 0.0006 nM and the “IC50 for Antibody (PM), MRC-5 bioassay” value [2] was 0.0014 nM. It also gave a Kd [4] of 0.0394 nM, a koff [4] of 3.82e-05 s⁻¹ and a kon [4] of 970000 M⁻¹ s⁻¹. The Kd [5] was 0.0281 nM, the koff [5] was 2.54e-05 s⁻¹ and the kon [5] was 896000 M⁻¹ s⁻¹.
